Data on four molecules can be found in patent US20220135687A1 (NANJING LEGEND BIOTECH, published 2022).

Assay [1] has as its target T1, human PD-L1 expressed on CHO-K1 cells (Genscript, Cat #M00543) (human, UniProt Q9NZQ7 19-290). Put plainly: cell-based or functional assay.
For assay [2], the target named is T1, human PD-L1 expressed on CHO-K1 cells …. Put plainly: FACS, CHO-K1/human PD-L1 cells. The protocol:
(§1) PD-L1 stable cell line binding activity assessment of 12 mouse mAbs was carried out using FACS. CHO-K1 cells expressing human PD-L1 (Genscript, Cat #M00543) were dissociated from adherent culture flasks and mixed with varying concentrations of antibodies. The antibody and cells were incubated for 30 minutes at room temperature, washed three times with FACS buffer (PBS containing 1% BSA). PE-labeled goat anti-mouse IgG (minimal x-reactivity) secondary antibody (BioLegend, Cat #405307) was added and incubated at room temperature for 15 minutes. Cells were washed again with FACS buffer and analyzed by FACSCalibur (BD Bioscience, San Jose, Calif.) and Flowjo software. Data were analyzed with Prism 6 (GraphPad Software, San Diego, Calif.) using non-linear regression, and EC₅₀ values were calculated (FIGS. 2A-2L and Table 3).
A general note: In flow cytometry, cells or beads pass a laser one at a time.

In assay [3] the target is T2, His-tagged PD-L1 ECD protein (ACROBiosystems) (human, UniProt Q9NZQ7 19-238).
T2 construct: Bought protein; also called PD-L1-His; PD-L1/His; not shown: His tag
T2 sequence (Q9NZQ7 19-238): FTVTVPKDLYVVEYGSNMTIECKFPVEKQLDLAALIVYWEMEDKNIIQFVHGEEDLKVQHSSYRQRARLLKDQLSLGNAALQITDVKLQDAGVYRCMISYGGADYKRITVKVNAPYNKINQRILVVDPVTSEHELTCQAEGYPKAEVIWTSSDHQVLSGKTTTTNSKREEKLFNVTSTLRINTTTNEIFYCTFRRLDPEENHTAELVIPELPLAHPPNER
The assay can be described thus: SPR, mAb captured via anti-Fc, PD-L1-His analyte. The procedure: Briefly, capturing antibody (anti-mouse Fc antibody for the affinity measurement of mouse mAbs, or anti-human Fc antibody for the affinity measurement of chimeric and humanized mAbs, GE healthcare) was immobilized on a Biacore™ CM5 chip to approximately 7,000 RU using EDC-activated amine coupling chemistry. Antibody of interest (5 μg/ml) was captured for 60 seconds onto the sensorchip surface. His-tagged PD-L1 ECD protein (ACROBiosystems) was flowed over the sensorchip surface at a series concentrations. Flow rate was 30 μl/min in all experiments. Association and dissociation phases were 5 and 15 min, respectively. The chip was regenerated using Glycine/HCl pH 1.5. Captured antibody and antigen were removed between each cycle using 50 mM HCl in order to ensure a fresh binding surface for each concentration of antigen. The resulting sensorgrams were fit globally using a 1:1 binding model in order to calculate on- and off-rates (ka and kd, respectively), as well as affinities (KD).

Assay [4] concerns the target T1, human PD-L1 expressed on CHO-K1 cells …. The assay can be described thus: FACS competition vs biotin-PD-1-Fc on CHO-K1/human PD-L1 cells. The procedure:
A series of diluted mouse mAbs (concentration starting from 900 nM, 3 fold dilution, 50 μl per well) were added afterwards. The mixture was incubated at 4° C. for 30 minutes, washed twice with wash buffer, followed by the addition of PEcy5/streptavidin (1 μg/ml, 150 μl/well). The plates were again incubated at 4° C. for 30 minutes before the cells in each well were analyzed by FACSCalibur (BD Bioscience, San Jose, Calif.) and Flowjo software.

The target is the same in assay [5]. The assay can be described thus: FACS on CHO-K1 cells expressing human PD-L1, PE-labeled goat anti-mouse IgG secondary antibody. The protocol:
as §1

As a reminder, the EC50 is the concentration that produces a half-maximal response. High values mean a need for much substance, low ones an effect from little substance. What is called Kd is the constant that tells how readily two partners part at equilibrium. Lower therefore signals tighter binding. In general, koff refers to the first-order rate constant of dissociation. Read a low koff as a long-lived complex. One may read the kon as the second-order rate constant of association. A word on the IC50: it is the concentration that gives 50% inhibition. The EC50 (read off the curve) is the midpoint of the concentration-response curve.

T1 sequence (Q9NZQ7 19-290, one chain of several): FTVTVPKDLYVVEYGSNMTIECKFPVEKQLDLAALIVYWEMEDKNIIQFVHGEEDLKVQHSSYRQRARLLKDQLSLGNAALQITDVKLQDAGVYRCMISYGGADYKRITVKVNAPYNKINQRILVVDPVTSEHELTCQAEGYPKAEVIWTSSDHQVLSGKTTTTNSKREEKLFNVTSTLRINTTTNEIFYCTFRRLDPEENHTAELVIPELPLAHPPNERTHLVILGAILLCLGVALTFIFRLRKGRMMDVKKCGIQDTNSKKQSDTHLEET

B1: 29A8H8C7 (antibody, V domains shown)
VH: DVQLQGSGPGLVKPSQSLSLTCTVTGYSITSDFAWDWIRQFPGNKLEWMGHIRFSGTTSYNPSLKSRISITRDTSKNQFFLQLNSVTSEDTATYYCARSTLITKGFFDYWGQGTTLTVSS
VL: DIVMTQSHKFMSTSVGGRVSITCKASQDVSPAVAWYQQKPGQSPKLLIYWASTRHTGVPDRFTGSGSGTDFTLTISSVQTEDLALYYCQQHYSTPWTFGGGTKLEIK
notes: Mouse mAb from hybridoma culture; also called mouse 29A8H8C7
In the case of B1, the “EC50, PD-L1 cell-based luciferase reporter assay” value in assay [1] was found to be 3.61 nM. Also, in assay [2], it took 3.06 nM to reach a half-maximal effect (EC50) and the “Top (best-fit value)” value came out at 2440. In assay [3], this molecule came in with a Kd of 0.28 nM, a dissociation rate constant (koff) of 0.00017 s⁻¹ and a kon of 620000 M⁻¹ s⁻¹. This molecule displayed an IC50 in assay [4] of 1.41 nM.

B2: 18B7F4G8 (antibody, V domains shown)
VH: DVQLQESGPDLVKPSQSLSLTCTVTGYSITSGYTWHWIRQFPGNKLEWMGYIHYSGSTKYNPSLKSRFSITRDTSKNQFFLQLNSMTAEDTATYYCARNSLFASWGHGTLVTVSA
VL: DIVLTQSPASLAVSLGQRATISCRASESVDTYGDSFMHWFQQKPGQPPKLLIYRASNLESGIPARFSGSGSRTDFTLTINPVEADDVATYYCQQSNEAPYTFGGGTKLEIK
notes: Mouse mAb from hybridoma culture
B2: the “EC50, PD-L1 cell-based luciferase reporter assay” value in assay [1] stood at 2.27 nM. Further, in assay [2], the EC50 was 0.62 nM and the “Top (best-fit value)” value worked out at 399. The “EC50 (read off the curve)” value in assay [5] was about 3 nM.

B3: 51F3D2G4 (antibody, V domains shown)
VH: QVQLQQSGAELARPGASVRLSCKASGYIFTGYGISWVKQRTGQGLEWIGEIFPRTANTYFNEKFKGKATLTADKSSSTAYMELRSLTSEDSAVYFCARDYDPYYALDYWGQGTSVTVSS
VL: DIVMTQSHKFMSTSVGDRVTITCKASQDVSTAVDWYQQKPGQSPKLLIYSASYRYTGVPDRFTGSGSGTAFTFTISSEQAEDLAVYYCQQHYSVPFTFGGGTKLEIK
notes: as for B2
For the molecule B3, the “EC50, PD-L1 cell-based luciferase reporter assay” value in assay [1] worked out at 8.69 nM. Moreover, in assay [2], the EC50 stood at 2.13 nM and the “Top (best-fit value)” value amounted to 1720. Besides, the IC50 in assay [4] was found to be 1.23 nM.

B4: 53C1F3D4 (antibody, V domains shown)
VH: QVQLQQSGNELARPGASVRLSCKASGYIFTGYGITWVRQRPGQGLEWIGEIFPRRVNTYYSEKFKGRATLTADISSSTAYMELRSLTSEDSAVYFCARDYDPYFALDYWGQGTSVTVSS
VL: DIVMTQSHKFMSTSVGDRVSITCKASQDVSTAVDWYQQKPGQSPKLLIYSASYRYTGVPDRFTGSGSGTAFTFTISGEQAEDLAVYYCQQHYSIPFTFGGGTKLEIK
notes: Mouse mAb from hybridoma culture; also called mouse 53C1F3D4
Turning to B4, the “EC50, PD-L1 cell-based luciferase reporter assay” value in assay [1] was determined as 4.45 nM. Moreover, in assay [2], the 50% effective concentration (EC50) was found to be 3.73 nM and the “Top (best-fit value)” value turned out to be 2020. In assay [3], the dissociation constant (Kd) worked out at 0.61 nM, the dissociation rate constant (koff) turned out to be 0.00019 s⁻¹ and the on-rate constant (kon) turned out to be 320000 M⁻¹ s⁻¹. Besides, in assay [4], the 50% inhibitory concentration (IC50) turned out to be 1.27 nM.
